Measurements: patent US20190177704A1, “MODIFIED LUCIFERASE” (RIKEN, priority 2016, published 2019)
Substitutions are numbered along the chain they refer to. Numbers in names are those of the source.

B1: Luc2: luciferase derived from Photinus pyralis consisting of an amino acid sequence represented by SEQ ID NO: 1 (protein, listed as Photinus pyralis)
chain: MEDAKNIKKGPAPFYPLEDGTAGEQLHKAMKRYALVPGTIAFTDAHIEVDITYAEYFEMSVRLAEAMKRYGLNTNHRIVVCSENSLQFFMPVLGALFIGVAVAPANDIYNERELLNSMGISQPTVVFVSKKGLQKILNVQKKLPIIQKIIIMDSKTDYQGFQSMYTFVTSHLPPGFNEYDFVPESFDRDKTIALIMNSSGSTGLPKGVALPHRTACVRFSHARDPIFGNQIIPDTAILSVVPFHHGFGMFTTLGYLICGFRVVLMYRFEEELFLRSLQDYKIQSALLVPTLFSFFAKSTLIDKYDLSNLHEIASGGAPLSKEVGEAVAKRFHLPGIRQGYGLTETTSAILITPEGDDKPGAVGKVVPFFEAKVVDLDTGKTLGVNQRGELCVRGPMIMSGYVNNPEATNALIDKDGWLHSGDIAYWDEDEHFFIVDRLKSLIKYKGYQVAPAELESILLQHPNIFDAGVAGLPDDDAGELPAAVVVLEHGKTMTEKEIVDYVASQVTTAKKLRGGVVFVDEVPKGLTGKLDARKIREILIKAKKGGKIAV
B2: N229H_S347N: luc2 variant with N229H and S347N mutations (SEQ ID NO: 3) (protein)
chain: B1 chain with N229H, S347N
modifications: Modified Luciferase

Experiments:
Type in all cases: cell-based
[1] = Emission intensity of luciferase-expressing HeLa S3 cells with 6-AkaLumine; conditions: emission intensity of D-luciferin defined as 1
Procedure: (§1) A plasmid pcDNA3 was treated with use of BamHI and EcoRI, and genes encoding the respective luciferases above were each inserted into the plasmid pcDNA3 to produce plasmids for transfection.
(§2) HeLa S3 cells were used as mammalian cells to be transfected. For each of the luciferases above, HeLa S3 cells which had been cultured in D-MEM (low glucose, containing 10% FBS and 1% penicillin streptomycin, Wako Pure Chemical Industries, Ltd.) and were in an 80% confluent state were mixed with a transfection reagent (Polyethylenimine, Linear (MW 25,000, Polysciences, Inc)) and the plasmid for transfection (0.3 μg) to conduct transfection.
(§3) 24 hours after the transfection, the cells were dissociated through trypsinization, and were suspended in DMEM/F12 (10% FBS, gibco). Subsequently, centrifugation was conducted to remove the supernatant, and then the cells were resuspended in 1 mL DMEM/F12 so as to be used as luciferase-expressing cells.
(§4) In 1.5 mL Eppendorf tube, 20 μL of the produced luciferase-expressing cells and 80 μL of a substrate solution (prepared with pH 7.4 PBS) were mixed, and light emission from the obtained mixture was measured for one minute (with use of a luminometer AB-2280 manufactured by ATTO Corporation). An integrated value of the values thus measured within one minute was defined as the emission intensity.
(§5) Subsequently, with use of D-luciferin, AkaLumine, AkaLumine-OH, 6-AkaLumine, 0-AkaLumine, monoene NMe2, monoene NH2, monoene OH, and biphenyl as substrates, specificity to each of these substrates was evaluated. The substrates are respectively represented by the following chemical formulae. Each substrate solution contains a single kind of substrate.
(§6) Tables 3 through 8 show results of relative emission intensities in a case where the emission intensity of D-luciferin is defined as 1.

[2] = Emission intensity of luciferase-expressing HeLa S3 cells with AkaLumine-OH; conditions: emission intensity of D-luciferin defined as 1
Procedure: as §1, §2, §3, §4, §5, §6

[3] = Emission intensity of luciferase-expressing HeLa S3 cells with monoene NMe2; conditions: emission intensity of D-luciferin defined as 1
Procedure: as §1, §2, §3, §4, §5, §6

[4] = Emission intensity of luciferase-expressing HeLa S3 cells with D-luciferin; conditions: for relative emission intensity, Dluc: emission intensity of D-luciferin defined as 1
Procedure: as §1, §2, §3, §4
(§7) As the substrate solution, AkaLumine or D-luciferin (80 μM each) was added. Results of the measurement of emission intensity are shown below in Table 2 as relative values with respect to 1.0 which is an emission intensity obtained in a case where AkaLumine was added to a sample of luc2.
as §5, §6

[5] = Emission intensity of luciferase-expressing HeLa S3 cells with monoene NH2; conditions: emission intensity of D-luciferin defined as 1
Procedure: as §1, §2, §3, §4, §5, §6

[6] = Emission intensity of luciferase-expressing HeLa S3 cells with 0-AkaLumine; conditions: emission intensity of D-luciferin defined as 1
Procedure: as §1, §2, §3, §4, §5, §6

[7] = Emission intensity of luciferase-expressing HeLa S3 cells with monoene OH; conditions: emission intensity of D-luciferin defined as 1
Procedure: as §1, §2, §3, §4, §5, §6

[8] = Emission intensity of luciferase-expressing HeLa S3 cells with biphenyl; conditions: emission intensity of D-luciferin defined as 1
Procedure: as §1, §2, §3, §4, §5, §6

[9] = Emission intensity of luciferase-expressing HeLa S3 cells with AkaLumine; conditions: for relative emission intensity, AKA: emission intensity of D-luciferin defined as 1
Procedure: as §1, §2, §3, §4, §7, §5, §6

Molecule	relative emission intensity, 6-AKA [1]	relative emission intensity, AKA-OH [2]	relative emission intensity, monoNMe2 [3]	relative emission intensity, Dluc [4]	D-luciferin emission intensity, relative value ([4]; relative to 1.0 = emission intensity of luc2 with AkaLumine, 80 μM substrate, integrated over one minute)	relative emission intensity, monoNH2 [5]	relative emission intensity, O-AKA [6]	relative emission intensity, monoOH [7]	relative emission intensity, biph [8]	relative emission intensity, AKA ([9]; HeLa S3 cells)	AkaLumine/D-luciferin ([9]; ratio of relative emission intensities, Table 2)	AkaLumine emission intensity, relative value ([9]; relative to 1.0 = emission intensity of luc2 with AkaLumine, 80 μM substrate, integrated over one minute, HeLa S3 cells)
B1	1.6 × 10^−1	not detected	1.1 × 10^−1	1.0	5.5 × 10^−1	3.0 × 10^−3	8.4 × 10^−3	1.8 × 10^−3	1.4 × 10^−2	2.6 × 10^−1	1.8	1.0
B2	8.5 × 10^2	0.9		1.0		4.3 × 10^−1	6.3	not detected	4.9	1.7 × 10^3		
